Experiments:
[1] = biological target: adenosine A2A receptor (Homo sapiens (Human)) (UniProt P29274); assay: cell-based or functional assay
[2] = biological target: adenosine A2A receptor (Homo sapiens (Human)) (UniProt P29274); assay: flow cytometry, HEK293-A2a cells; Parent Singlets in the same table: 230
[3] = biological target: adenosine A2A receptor (Homo sapiens (Human)) (UniProt P29274); assay: flow cytometry, HEK293-A2a cells; Parent Singlets in the same table: 230; same picture as FIG. 16O

adenosine A2A receptor (Homo sapiens (Human)), sequence (P29274 whole entry): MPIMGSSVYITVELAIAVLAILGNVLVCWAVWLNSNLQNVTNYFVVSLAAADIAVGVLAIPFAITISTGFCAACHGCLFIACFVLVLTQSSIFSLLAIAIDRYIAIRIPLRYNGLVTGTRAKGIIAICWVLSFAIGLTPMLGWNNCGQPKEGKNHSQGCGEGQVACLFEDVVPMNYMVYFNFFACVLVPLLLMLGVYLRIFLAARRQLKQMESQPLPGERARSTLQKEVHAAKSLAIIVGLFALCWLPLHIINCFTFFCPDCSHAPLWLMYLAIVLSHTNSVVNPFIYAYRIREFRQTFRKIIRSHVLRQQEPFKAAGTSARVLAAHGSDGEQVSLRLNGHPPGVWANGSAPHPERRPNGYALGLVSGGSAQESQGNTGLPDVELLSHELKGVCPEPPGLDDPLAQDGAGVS

| Absolute IC50, A2A cAMP antagonist titration (as in Example 16: titrated IgG, fixed NECA) [1] | Absolute IC50, LANCE allosteric cAMP assay, titrated IgG then fixed NECA concentration [1] | Absolute IC50, cAMP allosteric A2A assay (as in Example 15: fixed IgG, NECA titration) [1] | Absolute IC50 of NECA titration in cAMP assay, cells pre-incubated with fixed 100 nM IgG [1] | Median : RL1-H (A2a Singlets) [2] | Median : RL1-H (A2a Singlets) [3] | Substance |
| --- | --- | --- | --- | --- | --- | --- |
| 9.43 | 9.43 | 0.513 | 2.25 |  |  | R&D control antibody |
|  |  |  |  | 7500 | 7500 | Human Adenosine A2aR monoclonal (MAB9497) (antibody) |

— patent publication US20210179724A1
